The test system of the series is MS2 coat protein. Description: apparent KD of MS2 coat protein; designed switch direction (-1 OFF switch, 1 ON switch): -1; higher = weaker reporter binding. The method in brief: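 Designed RNA switches were transcribed on Illumina chips by stalled E. coli RNA polymerase and titrated with SNAP-549-labelled MS2 coat protein from 0.7 or 1.5 nM, doubling to 3 µM. Step length ran from 0.8–1.5 h at the lowest concentration to 10–20 min at the highest. The apparent KD is the median over clusters for each design, from curve-fitted normalised cluster fluorescence.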

[1] abbreviates: Eterna round: R95, input ligand: FMN 200 uM.
Setting [2] is: Eterna round: R95, input ligand: microRNA oligo, concentration not stated.
Where [3] appears, read: Eterna round: R95, input ligand: none.
Setting [4] is: input ligand: microRNA oligo, concentration not stated.

“GCAUUUGUAGGAUAUACAUGAGGAUCACCCAUGUCGAGACGUGCAAGGCUUCCCAACUGUAGAAGGACGCGGCC [Eternabot (L1) Solution 61] (Eterna round: R97, puzzle: Exclusion 3)”: the “apparent KD of MS2 coat protein” value (input ligand: FMN 200 uM) was 30.8 nM and the “apparent KD of MS2 coat protein” value (input ligand: none) is 27.4 nM.
For “GCCAGAGCAGGAUAUUCAAUAUCACACAUGAGGAUCACCCAUGUCCAGCGAAAGCUGGAGGGAGAAGGGCUCUGGC [Fiskers Ex 5 - 12] (puzzle: Exclusion 5)”, the “apparent KD of MS2 coat protein” value under setting [1] turned out to be 18.8 nM, the “apparent KD of MS2 coat protein” value under setting [2] came out at 61.4 nM and the “apparent KD of MS2 coat protein” value under setting [3] is 88.2 nM.
For the sequence “GCCAGAGCAGGAUAUUCAGUAUCACACAUGAGGAUCACCCAUGUCCAGCGAAAGCUGGAGGGAGAAGGGCUCUGGC [Fiskers Ex 5 - 13] (puzzle: Exclusion 5)”, the “apparent KD of MS2 coat protein” value runs as follows: under setting [1], 40.8 nM; under setting [2], 108 nM; under setting [3], 298 nM.
In the same order, the values of “GCCAGAGCAGGAUAUUGAUAAAUUCACAUGAGGAUCACCCAUGUCCAGCGAAAGCUGGAACGAGAAGGGCUCUGGC [Mat - Exclusion 5 - Eli mod - D87] (puzzle: Exclusion 5)” are 11.7 nM, 13.3 nM and 13.7 nM.
As to “GCCAGUUUUGUGAGGAUAUCGUGCCGUUAGCGGCAUGAGAAGGCACAUGAGGAUCACCCAUGUGUGCAUCCGAG [Eternabot (L1) Solution 91] (Eterna round: R97, puzzle: Brourd's mod of Exclusion 4)”, the “apparent KD of MS2 coat protein” value came to 157 nM (input ligand: FMN 200 uM) and 28.4 nM (input ligand: none).
For “GCCCAGAGAGGAUAUACAUGAGGAUCACCCAUGUAGAGCUUGUCUGCAGUGAAAGGAUGUAGAAGGCUCGGGCA [Racearza] (Eterna round: R97, puzzle: Exclusion 3)”, the “apparent KD of MS2 coat protein” value is, setting by setting: (input ligand: FMN 200 uM) 42.6 nM; (input ligand: none) 26.8 nM.
As to “GCCCAGCUAGGAUAUCGCACUGCAGACAUGAGGAUCACCCAUGUGAUGAGGUCUGAAUCCCGAGAAGGAGCAUGGA [Enlain] (puzzle: Exclusion 5)”, under setting [2], the “apparent KD of MS2 coat protein” value was 15.8 nM.
“GCCCGGGCAGGAUAUACAAUGAUCGUGAGAAAUCGUGAUCGACAUGAGGAUCACCCAUGUAGAAGGGCCCGGGC [-34.5, -32.3 kcal, A 28% 2] (Eterna round: R97, puzzle: Exclusion 2)”: the “apparent KD of MS2 coat protein” value was 116 nM (input ligand: FMN 200 uM) and 50.5 nM (input ligand: none).
In the case of “GCCGAAAAAGUGAGGAUAUACCUAUGGAAACAUAGGUAGAAGGCACAUGAGGAUCACCCAUGUAUCCUAACGGC [Mat - Exclusion 4 - Eli Mod - D28] (Eterna round: R97, puzzle: Brourd's mod of Exclusion 4)”, the “apparent KD of MS2 coat protein” value is, setting by setting: (input ligand: FMN 200 uM) 268 nM; (input ligand: none) 28.5 nM.
On to “GCCGAUUAAGUGAGGAUAUACCUAUGGAAACAUAGGUAGAAGGCACAUGAGGAUCACCCAUGUUCCUAUACGGC [Fiskers BMX 4 - 5] (puzzle: Brourd's mod of Exclusion 4)”, for which the “apparent KD of MS2 coat protein” value by setting is: under setting [1], 36.4 nM; under setting [2], 12.3 nM; under setting [3], 11 nM.
“GCCGAUUAAGUGAGGAUAUACCUAUGGAUACAUAGGUAGAAGGUACAUGAGGAUCACCCAUGUUCCUCAACGGC [Fiskers BMX 4 - 9] (puzzle: Brourd's mod of Exclusion 4)”: the “apparent KD of MS2 coat protein” value under setting [2] turned out to be 8.93 nM.
For “GCCGCCGCCUUGGCGGCGGACAUGAGGAUCACCCAUGUCAAGCUUUUGCUCGUCUUAUUUGGCCGGCUUGCCGGCCA [Olib_1] (Eterna round: R97, puzzle: Sensor, turn-off variant 1)”, the “apparent KD of MS2 coat protein” value is 24.5 nM (input ligand: FMN 200 uM) and 26.1 nM (input ligand: none).
In the case of “GCCGUACAAGGAUAUCUAUCGCAAAACAUGAGGAUCACCCAUGUGUAUCCUAACCGGCGAAGAGAAGGUGUAGUUA [Letelabe] (Eterna round: R97, puzzle: Exclusion 5)”, the “apparent KD of MS2 coat protein” value runs as follows: (input ligand: FMN 200 uM) 24.4 nM; (input ligand: none) 18.1 nM.
In the case of “GCCGUGUUAGGAUAUCGCUCGACGAAUAGUUGUCGGAGGAACGAGAAGGAACAUGAGGAUCACCCAUGUGUCAC [Eternabot (L1) Solution 33] (Eterna round: R97, puzzle: Exclusion 4)”, the “apparent KD of MS2 coat protein” value is, setting by setting: (input ligand: FMN 200 uM) 57.5 nM; (input ligand: none) 21.4 nM.
For the sequence “GCCUCACUUGAGGAUCACCCAAGUCAGGAUAUCUACAAGCCGGCCAUACCGGCUUGCAAGAGAAGGGACUCUAA [Xemamaqu] (Eterna round: R97, puzzle: Exclusion 1)”, the “apparent KD of MS2 coat protein” value is 178 nM (input ligand: FMN 200 uM) and 38.5 nM (input ligand: none).
For “GCCUCACUUGAGGAUCACCCAAGUCAGGAUAUUUGAAAGCAAGCCUAAAACACGCGUAAAAGAAGGGACUUGAA [Armare] (Eterna round: R97, puzzle: Exclusion 1)” the same measures were 30.3 nM and 20.9 nM.
“GCCUUAUCCGUCAGGAUAUACAGCCGCUCCCUGUUGUAGAAGGGACAUGAGGAUCACCCAUGUACGUACCACCG [alecazam8] (Eterna round: R97, puzzle: Brourd's mod of Exclusion 4)”: the “apparent KD of MS2 coat protein” value runs as follows: (input ligand: FMN 200 uM) 28.1 nM; (input ligand: none) 29.2 nM.
For “GCCUUAUCGGUCAGGAUAUACACCCGUCACUUGUUGUAGAAGGGACAUGAGGAUCACCCAUGUACAUUACAUUG [alecazam37] (Eterna round: R97, puzzle: Brourd's mod of Exclusion 4)” the same measures were 31.3 nM and 26 nM.
As for “GCCUUGGGAGUCAGGAUAUACAAUAAAAUAAUUAAGUAGAAGGGACAUGAGGAUCACCCAUGUACAUUACAUCG [alecazam31] (Eterna round: R97, puzzle: Brourd's mod of Exclusion 4)”, the “apparent KD of MS2 coat protein” value came to 39.5 nM (input ligand: FMN 200 uM) and 25.7 nM (input ligand: none).
As to “GCGACAGCGGUUAGGAUAUAUGUUAGGACGUAGAUAUAGAAGGAACAUGAGGAUCACCCAUGUUUAAAAUGGGA [Eternabot (L1) Solution 71] (Eterna round: R97, puzzle: Brourd's mod of Exclusion 4)”, the “apparent KD of MS2 coat protein” value is, setting by setting: (input ligand: FMN 200 uM) 69.5 nM; (input ligand: none) 71.9 nM.
For “GCGCCAUCGUGAGAUGGCGUAUAAACAUGAGGAUCACCCAUGUAGGAUAUCGAUUGCUUUGCAGUCGAGAAGGGCAUUAUAAGU [JL ENG3 3.75] (Eterna round: R96, puzzle: Exclusion NG 3)”, the “apparent KD of MS2 coat protein” value is, setting by setting: (input ligand: FMN 200 uM) 29.2 nM; under setting [4], 19 nM; (input ligand: none) 28.4 nM.
Regarding “GCGGGAAAAGGAUAUGAGAGGUAAUACAUGAGGAUCACCCAUGUGAUAGACUCUGUGCUUUUAGAAGGUUUAUGUC [Eternabot (L1) Solution 19] (Eterna round: R97, puzzle: Exclusion 5)”, the “apparent KD of MS2 coat protein” value runs as follows: (input ligand: FMN 200 uM) 14.3 nM; (input ligand: none) 15.3 nM.
For “GCGGUACAUGAGGAUCACCCAUGUCAGGAUAUCCGCUGUAACUUAAUAAAUAAGCGGUGGAGAAGGGACUUCGC [-18.24, -17.54 kcal, 30% A] (Eterna round: R97, puzzle: Exclusion 1)” the same measures were 34.2 nM and 27.6 nM.
Consider “GCGUACAGCCUAAGCAGUGACAUGAGGAUCACCCAUGUACGAACGUUUACCAAGCUUGUCUUAAUACCAUUAUAAAU [Eternabot (L1) Solution 20] (Eterna round: R97, puzzle: Sensor, turn-off variant 1)”, for which the “apparent KD of MS2 coat protein” value reads like this: (input ligand: FMN 200 uM) 23.7 nM; (input ligand: none) 28.9 nM.
Take “GCGUAGUAUGUAGGAUAUCGGUCAGUUUCUGAUCGAGAAGGACAUGAGGAUCACCCAUGUAAAACGCCCGCUUUGUGGGUACGC [JL ENG1 3.59] (Eterna round: R96, puzzle: Exclusion NG 1)”: the “apparent KD of MS2 coat protein” value was determined as 55.4 nM (input ligand: FMN 200 uM), 17.6 nM under setting [4] and 22.4 nM (input ligand: none).
For the sequence “GCGUAGUAUGUAGGAUAUCGGUCAGUUUCUGAUCGAGAAGGACAUGAGGAUCACCCAUGUAAAUUGCCCGCUUUGUGGGUACGC [JL ENG1 3.60] (Eterna round: R96, puzzle: Exclusion NG 1)”, the “apparent KD of MS2 coat protein” value was found to be 59.3 nM (input ligand: FMN 200 uM), 19.1 nM under setting [4] and 22.5 nM (input ligand: none).
Consider “GCGUUCUGAGGAUAUACAUGAGGAUCACCCAUGUUGAGAAUUAUGUAUAAAAGAUUAUGUAGAAGGCAGAGUGC [JR_Ex3_Sub071] (Eterna round: R97, puzzle: Exclusion 3)”, for which the “apparent KD of MS2 coat protein” value (input ligand: FMN 200 uM) stood at 140 nM and the “apparent KD of MS2 coat protein” value (input ligand: none) came to 716 nM.
Turning to “GCUACCAGAGUGAGGAUAUCGGAUGCGCAAGCACACGAGAAGGCACAUGAGGAUCACCCAUGUAUGGUAGCCGU [eternacac ex4r4 #9] (Eterna round: R97, puzzle: Brourd's mod of Exclusion 4)”, the “apparent KD of MS2 coat protein” value reads like this: (input ligand: FMN 200 uM) 13.2 nM; (input ligand: none) 39.1 nM.
For “GCUAUGACUGUGAGGAUAUGGACCGGGCUCUCGGAUUAGAAGGCACAUGAGGAUCACCCAUGUGAUCACGUACU [Eternabot (L2) Solution 87] (Eterna round: R97, puzzle: Brourd's mod of Exclusion 4)”, the “apparent KD of MS2 coat protein” value reads like this: (input ligand: FMN 200 uM) 42.2 nM; (input ligand: none) 27.5 nM.
With “GCUCAGAUGACAGGAUAUCACGCCUGGCAGAUGGGCGACAUGAGGAUCACCCAUGUCCAGCACGAUGAGAAGGGUUAUCGGGCG [Ririorti] (Eterna round: R96, puzzle: Exclusion NG 2)”, the “apparent KD of MS2 coat protein” value (input ligand: FMN 200 uM) turned out to be 195 nM, the “apparent KD of MS2 coat protein” value under setting [4] turned out to be 94.2 nM and the “apparent KD of MS2 coat protein” value (input ligand: none) was 96.4 nM.
For the sequence “GCUCAGUAAGGAUAUUGUUUAGGAGCUAUAGGCGUAGUUAACAAGAAGGUACAUGAGGAUCACCCAUGUCCAUC [Eternabot (L2) Solution 36] (Eterna round: R97, puzzle: Exclusion 4)”, the “apparent KD of MS2 coat protein” value stood at 17.7 nM (input ligand: FMN 200 uM) and 15.1 nM (input ligand: none).

Values taken from the supplement of paper PMC9170038.
